Test results reported in the supplement of paper PMC9233669.
Variants at the floor of the assay were thinned out.

Legend:
[1] = test system: biotinyl-Trp-oxazolone; assay: self-aminoacylation, catalytic enhancement (BWO) (fold over background); higher = more active; k-Seq, kA / k0A0; sequences stand for … in GGGAAUGGAUCCACAUCUACGAAUUC…UUCACUGCAGACUUGACGAAGCUG
In short: (§1)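 Mutagenized RNA pools (0.43 μM; 21-nt variable region) were treated with 2–1250 μM of each biotinyl-aminoacyl-oxazolone. Conditions were 50 μL HEPES/NaCl/KCl/MgCl2/CaCl2 buffer, 5% acetonitrile, pH 6.9–7.0, room temperature, 90 minutes. Catalytic enhancement, the median kA relative to the uncatalyzed rate, was derived from streptavidin capture, qPCR and Illumina sequencing.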

[2] = test system: biotinyl-Ile-oxazolone; assay: self-aminoacylation, catalytic enhancement (BIO) (fold over background); higher = more active; k-Seq, kA / k0A0; sequences stand for … in GGGAAUGGAUCCACAUCUACGAAUUC…UUCACUGCAGACUUGACGAAGCUG
In short: as §1

[3] = test system: biotinyl-Leu-oxazolone; assay: self-aminoacylation, catalytic enhancement (BLO) (fold over background); higher = more active; k-Seq, kA / k0A0; sequences stand for … in GGGAAUGGAUCCACAUCUACGAAUUC…UUCACUGCAGACUUGACGAAGCUG
In short: as §1

[4] = test system: biotinyl-Met-oxazolone; assay: self-aminoacylation, catalytic enhancement (BMO) (fold over background); higher = more active; k-Seq, kA / k0A0; sequences stand for … in GGGAAUGGAUCCACAUCUACGAAUUC…UUCACUGCAGACUUGACGAAGCUG
In short: as §1

[5] = test system: biotinyl-Val-oxazolone; assay: self-aminoacylation, catalytic enhancement (BVO) (fold over background); higher = more active; k-Seq, kA / k0A0; sequences stand for … in GGGAAUGGAUCCACAUCUACGAAUUC…UUCACUGCAGACUUGACGAAGCUG
In short: as §1

[6] = test system: biotinyl-Phe-oxazolone; assay: self-aminoacylation, catalytic enhancement (BFO) (fold over background); higher = more active; k-Seq, kA / k0A0; sequences stand for … in GGGAAUGGAUCCACAUCUACGAAUUC…UUCACUGCAGACUUGACGAAGCUG
In short: as §1

Row | Sequence | self-aminoacylation [1] | self-aminoacylation [2] | self-aminoacylation [3] | self-aminoacylation [4] | self-aminoacylation [5] | self-aminoacylation [6]
1 | CCACACUUCAAGCAAGCGGUA [Fam1B.1 aminoacylation ribozyme variant] | 0.921 | 1.39 | 1.13 | 1.02 | 1.2 | 0.741
2 | CUUCAGCUAGGUCAUCGGGUG [Fam2.2 aminoacylation ribozyme variant] | 3.83 | 2.65 | 3.57 | 3.42 | 3.6 | 16
3 | AUUCACCUAGAUCAUGGGGUG [Fam2.2 aminoacylation ribozyme variant] | 4.68 | 3.07 | 6.83 | 5.3 | 2.61 | 31.5
4 | CUCCUUCAACCAAUCGGUCUG [Fam1A.1 aminoacylation ribozyme variant] | 19.8 | 1.11 | 1.33 | 1.1 | 1.16 | 29.5
5 | CUUCUUAAAACAAUCGGUCUG [Fam1A.1 aminoacylation ribozyme variant] | 0.564 | 0.859 | 0.739 | 0.895 | 0.748 | 0.699
6 | AUUCACCUAGGCCAUCGGGUA [Fam2.2 aminoacylation ribozyme variant] | 3.52 | 2.42 | 3.81 | 3.31 | 2.21 | 16.4
7 | CUACUUCAAACAAGCGGUUUG [Fam1A.1 aminoacylation ribozyme variant] | 0.559 | 0.89 | 0.705 | 0.637 | 0.701 | 0.557
8 | CCGCAUUUCAAGCAAUCGGUC [Fam1B.1 aminoacylation ribozyme variant] | 14.3 | 2.36 | 2.72 | 1.92 | 2.48 | 16.8
9 | AAGUUUGCUACUAGCCGCAAG [Fam3.1 aminoacylation ribozyme variant] | 0.996 | 0.746 | 0.51 | 0.786 | 0.638 | 1.27
10 | AUUAGCCUGGUCAUCGAGUGU [Fam2.1 aminoacylation ribozyme variant] | 5.12 | 2.76 | 4.18 | 4.71 | 3.14 | 3.87
11 | CUACUACUAACAAUCGGUCUG [Fam1A.1 aminoacylation ribozyme variant] | 0.466 | 0.764 | 0.495 | 0.729 | 0.673 | 1
12 | CCCCACUUCAAGCAAUGGGUC [Fam1B.1 aminoacylation ribozyme variant] | 1.96 | 1.32 | 0.835 | 0.959 | 1.67 | 1.88
13 | AAGUUUGCGAAUCGUCGCAAG [Fam3.1 aminoacylation ribozyme variant] | 1 | 1.31 | 0.942 | 1.19 | 1.1 | 1.79
14 | AUUCCCCUAGGUCAUCGGGUU [Fam2.2 aminoacylation ribozyme variant] | 7.29 | 6.34 | 8.02 | 5.77 | 6.74 | 36.7
15 | AUUCAUGUAGGUCAUCGGGUG [Fam2.2 aminoacylation ribozyme variant] | 5.09 | 3 | 6.54 | 5.45 | 3.43 | 33.9
16 | GUACUUCAGACAAUCGGUCUG [Fam1A.1 aminoacylation ribozyme variant] | 1.56 | 1.22 | 1.32 | 1.2 | 1.06 | 4.98
17 | AUUAUCCGGGUCAUCGAGUGA [Fam2.1 aminoacylation ribozyme variant] | 8.13 | 4.14 | 8.08 | 8.26 | 4.04 | 45.7
18 | AUUCACCUCGGUCAUAGGGUG [Fam2.2 aminoacylation ribozyme variant] | 1.43 | 1.11 | 1.76 | 1.41 | 1.19 | 5.66
19 | UUACUUCAAACAAUGGGUCUG [Fam1A.1 aminoacylation ribozyme variant] | 1.23 | 1.05 | 1.06 | 1.03 | 1.05 | 0.83
20 | AUUCCCCUAGGUCAUCGGCUG [Fam2.2 aminoacylation ribozyme variant] | 6.44 | 8.03 | 7.58 | 6.91 | 7.07 | 30.9
21 | AUUAACCUGGGUCAUCGGGUG [Fam2.2 aminoacylation ribozyme variant] | 11.4 | 6.99 | 15.6 | 13.4 | 6.35 | 39.6
22 | CUACUUGAAAGAAUCGGUCUG [Fam1A.1 aminoacylation ribozyme variant] | 0.731 | 0.869 | 0.693 | 0.974 | 0.771 | 0.599
23 | CCCCACUUCAAGCACUCGGUC [Fam1B.1 aminoacylation ribozyme variant] | 4.4 | 2.26 | 3.08 | 2.79 | 2.79 | 11
24 | UUUACGCUGGUCAUCGAGUGA [Fam2.1 aminoacylation ribozyme variant] | 6.37 | 3.56 | 4.78 | 4.46 | 4.07 | 10.2
25 | CUACUUGUAACAAUCGGUCUG [Fam1A.1 aminoacylation ribozyme variant] | 0.573 | 0.651 | 0.678 | 0.806 | 0.658 | 0.824
26 | UUACUUCACACAAUCGGUCUG [Fam1A.1 aminoacylation ribozyme variant] | 1.03 | 1.27 | 1.17 | 1.06 | 1.28 | 1.66

Row | Sequence | self-aminoacylation [1] | self-aminoacylation [2] | self-aminoacylation [3] | self-aminoacylation [4] | self-aminoacylation [5] | self-aminoacylation [6]
27 | CAAGUUCAAACAAUCGGUCUG [Fam1A.1 aminoacylation ribozyme variant] | 4.9 | 0.983 | 1.02 | 0.954 | 0.969 | 6.99
28 | AAGUUUGAUGAUAGUCGCAAG [Fam3.1 aminoacylation ribozyme variant] | 1.4 | 1.78 | 1.63 | 1.49 | 1.49 | 2.4
29 | AUUACCCUGGUCAUUUAGUGA [Fam2.1 aminoacylation ribozyme variant] | 14.4 | 5.57 | 11.1 | 11.7 | 5.82 | 70
30 | AUUACACUGAUCAUCGAGUGA [Fam2.1 aminoacylation ribozyme variant] | 7.71 | 3.19 | 6.95 | 6.59 | 3.71 | 21.1
31 | AAGUUUGCUUAUAGUAGCAAG [Fam3.1 aminoacylation ribozyme variant] | 0.878 | 1.04 | 1.08 | 1.06 | 1.12 | 1.56
32 | AUUCACCUAGGUCAUCCGGCG [Fam2.2 aminoacylation ribozyme variant] | 4.29 | 3.31 | 3.69 | 3.55 | 4.01 | 15.3
33 | AUUCACCUAGGCCAUCGCGUG [Fam2.2 aminoacylation ribozyme variant] | 3.85 | 4.69 | 6.31 | 4.45 | 4.15 | 31.6
34 | CUACUUCAAACAUACGGUCUG [Fam1A.1 aminoacylation ribozyme variant] | 0.556 | 0.776 | 0.662 | 0.565 | 0.763 | 0.561
35 | AUUACCCUGGUGAUCGACUGA [Fam2.1 aminoacylation ribozyme variant] | 0.743 | 1.05 | 1.12 | 0.951 | 1.02 | 0.543
36 | ACGUUUGCUAAUAGUGGCAAG [Fam3.1 aminoacylation ribozyme variant] | 0.59 | 0.853 | 0.804 | 0.75 | 0.741 | 0.738
37 | AUUAACCUGGUCACCGAGUGA [Fam2.1 aminoacylation ribozyme variant] | 7.92 | 3.88 | 8.22 | 6.76 | 3.69 | 40.8
38 | CUACUCGAAACAAUCGGUCUG [Fam1A.1 aminoacylation ribozyme variant] | 0.979 | 0.837 | 0.84 | 0.942 | 1.01 | 0.599
39 | AUGUUUGCUAAUAGUGGCAAG [Fam3.1 aminoacylation ribozyme variant] | 0.491 | 0.646 | 0.588 | 0.483 | 0.643 | 1.22
40 | CCACACUUCACGUAAUCGGUC [Fam1B.1 aminoacylation ribozyme variant] | 0.591 | 0.892 | 0.733 | 0.822 | 0.914 | 0.967
41 | AAGUUUGCUCAUAGUGGCAAG [Fam3.1 aminoacylation ribozyme variant] | 0.785 | 0.71 | 0.526 | 0.618 | 0.774 | 1.2
42 | AUUCCCCUGGUCAUCGAUUGA [Fam2.1 aminoacylation ribozyme variant] | 2.47 | 1.59 | 1.73 | 1.55 | 1.79 | 1.13
43 | AAGUUUGCUAACAGUCGCAAU [Fam3.1 aminoacylation ribozyme variant] | 1.58 | 1.13 | 0.968 | 1.22 | 0.959 | 0.994
44 | AUUUACGUAGGUCAUCGGGUG [Fam2.2 aminoacylation ribozyme variant] | 3.64 | 2.88 | 3.68 | 3.99 | 3.38 | 25.2
45 | AUUACCCUGGGCAUCGAUUGA [Fam2.1 aminoacylation ribozyme variant] | 0.622 | 0.645 | 0.749 | 0.593 | 0.648 | 0.38
46 | AUUCACCUAGGACAUCCGGUG [Fam2.2 aminoacylation ribozyme variant] | 4.47 | 7.62 | 6 | 5.98 | 6.22 | 31
47 | CUACUUCAAACAUUCGGUCUC [Fam1A.1 aminoacylation ribozyme variant] | 0.715 | 0.986 | 0.806 | 0.849 | 0.975 | 0.796
48 | CUACUUAAAACAAUCGGUCCG [Fam1A.1 aminoacylation ribozyme variant] | 0.709 | 0.878 | 0.908 | 1.12 | 0.835 | 0.603
49 | CUACUUCAAACAAUCAUUCUG [Fam1A.1 aminoacylation ribozyme variant] | 1.55 | 0.616 | 0.513 | 0.488 | 0.577 | 3.72
50 | CCACUUCAACCAAUCGGUCUG [Fam1A.1 aminoacylation ribozyme variant] | 36.4 | 1.68 | 2.76 | 1.7 | 2.01 | 73.2
51 | AAUUUUGCUAAUUGUCGCAAG [Fam3.1 aminoacylation ribozyme variant] | 2.21 | 2.45 | 2.13 | 1.92 | 1.73 | 2.61
